Measurements published in article PMC1236978.

Molecular target: T1, HutP (V51I) (Bacillus subtilis, UniProt P10943 1-148, V51I)
T1 sequence: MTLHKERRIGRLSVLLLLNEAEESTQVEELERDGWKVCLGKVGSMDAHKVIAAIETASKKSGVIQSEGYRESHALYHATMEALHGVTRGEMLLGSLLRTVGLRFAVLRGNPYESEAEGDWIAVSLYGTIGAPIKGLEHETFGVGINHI
Assay: EMSA

B1: 21mer hut RNA (minimal RNA element) (ssRNA)
RNA: CAUAGAUCUUAGACGAUAGGG
B1: binds.
